Drawing on US6066472, this text covers dephosphorylation (radioactivity released as inorganic phosphate, percentage of total input) for one substance.

This assay has as its target myelin basic protein, 32P-labeled on tyrosine residues.

With “PTPL1 protein tyrosine phosphatase (from UniProt Q12923) (enzyme)”, the dephosphorylation (radioactivity released as inorganic phosphate, percentage of total input) was > 30%.
